Assay [1] has as its target RVFV Gn (crystallization construct) (Rift Valley fever virus, UniProt P21401). Description: SEC. Conditions: both partners purified.
Assay [2] addresses SFTSV Gn glycoprotein (residues 20-341) (Severe fever with thrombocytopenia …, UniProt R4V2Q5). Description: ELISA. Conditions: both partners purified.

Sequence of SFTSV Gn glycoprotein (residues 20-341) (R4V2Q5 whole entry, looked up, the tested form may be a part): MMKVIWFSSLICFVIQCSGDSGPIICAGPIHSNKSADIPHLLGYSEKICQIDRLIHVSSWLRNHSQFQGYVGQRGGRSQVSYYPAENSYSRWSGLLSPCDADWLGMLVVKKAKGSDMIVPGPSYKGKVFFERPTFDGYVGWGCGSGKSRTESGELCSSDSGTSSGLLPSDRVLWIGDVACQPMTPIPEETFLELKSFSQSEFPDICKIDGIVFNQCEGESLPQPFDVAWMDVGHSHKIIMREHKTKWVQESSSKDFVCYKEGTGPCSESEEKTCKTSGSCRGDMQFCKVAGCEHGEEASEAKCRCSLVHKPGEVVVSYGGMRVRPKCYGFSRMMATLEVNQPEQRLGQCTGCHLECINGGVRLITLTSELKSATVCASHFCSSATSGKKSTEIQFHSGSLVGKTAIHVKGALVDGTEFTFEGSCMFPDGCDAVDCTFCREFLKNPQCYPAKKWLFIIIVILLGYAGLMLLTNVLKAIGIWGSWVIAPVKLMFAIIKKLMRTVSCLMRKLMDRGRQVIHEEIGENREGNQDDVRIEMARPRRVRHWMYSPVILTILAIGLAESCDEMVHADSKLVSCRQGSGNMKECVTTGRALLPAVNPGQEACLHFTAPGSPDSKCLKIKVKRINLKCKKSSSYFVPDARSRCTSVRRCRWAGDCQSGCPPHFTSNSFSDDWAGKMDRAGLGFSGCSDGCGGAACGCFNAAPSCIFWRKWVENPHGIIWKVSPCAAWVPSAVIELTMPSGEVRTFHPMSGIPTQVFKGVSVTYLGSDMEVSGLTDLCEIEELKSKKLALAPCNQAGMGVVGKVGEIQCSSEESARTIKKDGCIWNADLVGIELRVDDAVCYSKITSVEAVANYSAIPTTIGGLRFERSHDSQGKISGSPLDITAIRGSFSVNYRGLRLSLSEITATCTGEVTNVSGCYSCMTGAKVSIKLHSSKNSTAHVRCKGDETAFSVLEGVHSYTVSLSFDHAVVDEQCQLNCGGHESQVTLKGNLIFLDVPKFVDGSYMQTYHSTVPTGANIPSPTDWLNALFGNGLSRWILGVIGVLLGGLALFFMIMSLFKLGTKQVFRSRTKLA
Sequence of RVFV Gn (crystallization construct) (P21401 168-483): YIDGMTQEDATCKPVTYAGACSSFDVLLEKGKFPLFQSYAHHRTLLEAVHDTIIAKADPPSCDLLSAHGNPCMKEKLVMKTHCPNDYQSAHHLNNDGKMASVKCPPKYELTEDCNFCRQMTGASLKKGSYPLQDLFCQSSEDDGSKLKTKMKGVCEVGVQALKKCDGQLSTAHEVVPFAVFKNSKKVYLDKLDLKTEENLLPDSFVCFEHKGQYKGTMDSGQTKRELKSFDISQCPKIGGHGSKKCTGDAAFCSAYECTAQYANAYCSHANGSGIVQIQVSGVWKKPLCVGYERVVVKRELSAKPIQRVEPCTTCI

B1: Fab fragment of RV-Gn1 (Fab, V domains shown)
VH: TGSLEESGGRLVTPGTPLTLTCTVSGIDPNSDHMSWVRQAPGKGLEWIAIIYASGTTYYASWAKGRFTISKTSTTVDLRIASPTTEDTATYFCATYPNYPTDNLWGQGTLVTVSG
VL: TGMTQTPSPVSAAVGGTVTINCQASQSVYNNYLLSWYQQKPGQPPKRLIYSASTLASGVSSRFKGSGSGTQFTLTISDVQCDDAATYYCLGSYDGNSADCLAFGGGTEVVVK
notes: also called RV-Gn1 Fab; Fab RV-Gn1
In the case of B1, in assay [1], the “stoichiometry N” value stood at 1.

B2: RV-Gn1 (full-length rabbit IgG) (antibody, V domains shown)
VH: QSLEESGGRLVTPGTPLTLTCTVSGIDPNSDHMSWVRQAPGKGLEWIAIIYASGTTYYASWAKGRFTISKTSTTVDLRIASPTTEDTATYFCATYPNYPTDNLWGQGTLVTVSS
VL: TGMTQTPSPVSAAVGGTVTINCQASQSVYNNYLLSWYQQKPGQPPKRLIYSASTLASGVSSRFKGSGSGTQFTLTISDVQCDDAATYYCLGSYDGNSADCLAFGGGTEVVVK
notes: also called RVFV-Gn1; source: rabbit hybridoma supernatant, purified (Protein G)
B2: in assay [2], the binding result is listed as “no binding (tested: 10μg/ml)”.

The term stoichiometry N denotes the number of molecules, sites or subunits per partner or assembly.

The values are drawn from PMC6315105 (Cell Reports, 2018).
